From US20220267440A1 (ABSOS, published 2022)
Numbering of substitutions follows the chain as printed.

B1: anti-CD47 AlivaMab antibody 164 (antibody, IgG1, V domains shown)
VH: QVQLQESGPGLVKPSETLSLTCTVSGGSISSYYWSWIRQPPGKGLEWIGYVYYSGGTNYNPSLKSRVTISVDTSKNQFSLKLSSVTAADTAVYYCARKRGTFDYWGQGTLVTVSS
VL: DIQMTQSPSSVSASVGDRVTITCRASQGISSWLAWYQQKPGKAPKLLIYAASSLQSGVPSRFSGSGSGTDFTLTISSLQPEDFATYFCQQANSFPLTFGGGTKVEIK
notes: Chimeric AlivaMab Mouse mAb from hybridoma: human V, CH1 and upper hinge, mouse middle hinge, CH2 and CH3, human kappa light chain; also called clone 164; mAb 164
B2: anti-CD47 AlivaMab antibody 161 (antibody, IgG1, V domains shown)
VH: QVQLQESGPGLVKPSETLSLTCTVSGGSISSYYWSWIRQPPGKGLEWIGYIYYSGSTNYNPSLKSRVTISVDTSKNQFSLKLSSVTAADTAVYYCARSRYFDLWGRGTLVTVSS
VL: DIQMTQSPSAMSTSVGDRVTITCRASQGISNFLAWFQQKPGKVPKRLIYAASSLQSGVPSRFSGSGSGTEFTLTISSLQPEDFATYYCLQHNSYPYTFGQGTKLEIK
notes: Chimeric AlivaMab Mouse mAb from hybridoma: human V, CH1 and upper hinge, mouse middle hinge, CH2 and CH3, human kappa light chain; also called clone 161; mAb 161
B3: anti-CD47 AlivaMab antibody 85 (antibody, IgG1, V domains shown)
VH: QVQLQESGPGLVKASETLSLTCTVSGGSISGYYWSWIRQPAGKGLEWIGRIYNSGSTNYNPSLKSRVTMSVDTSKNQFSLKLSSVTAADTAVYYCARQTYLDYWGQGTLVTVSS
VL: B2 VL with T13A, N31I, F32Y, Y96L, Q100G, L104V
notes: Chimeric AlivaMab Mouse mAb from hybridoma: human V, CH1 and upper hinge, mouse middle hinge, CH2 and CH3, human kappa light chain; also called clone 85; mAb 85
B4: anti-CD47 AlivaMab antibody 107 (antibody, IgG1, V domains shown)
VH: B1 VH with V12M, S35T, V51I, G56S, K98G, T101A, F102L, D103T, Y104A
VL: DIQLTQSPSFLSASVGDRVTITCRASQDIGSYLAWCQQKPGKAPKLLIYAASTLQGGVPSRFSGSGSGTEFTLTISSLQPEDFATYYCQQLNSYPLTFGGGTKVEIK
notes: Chimeric AlivaMab Mouse mAb from hybridoma: human V, CH1 and upper hinge, mouse middle hinge, CH2 and CH3, human kappa light chain
B5: anti-CD47 AlivaMab antibody 91 (antibody, IgG1, V domains shown)
VH: B1 VH with S31T, V51I, G56T, G100D, T101A, Y104I, L110M
VL: EIVLTQSPGTLSLSPGERATLSCRASQSVSSTYLAWSQQKPGQAPRLLIYGASSRATGIPDRFSGSGSGTDFTLTISRLEPEDFAVYYCQQYGSSRTFGQGTKVEIK
notes: Chimeric AlivaMab Mouse mAb from hybridoma: human V, CH1 and upper hinge, mouse middle hinge, CH2 and CH3, human kappa light chain; also called clone 91; mAb 91
B6: anti-CD47 AlivaMab antibody 151 (antibody, IgG1, V domains shown)
VH: B1 VH with V51I, G56S, G100K, T101Y
VL: DIQMTQSPSSLSASVGDRVTITCRASQGISNYLAWYQQKPGKVPKLLIYAASTLQSGVPSRFSGSGSGTDFTLTISSLQPEDVATYYCQKCNSAPFTFGPGTKVDIK
notes: Chimeric AlivaMab Mouse mAb from hybridoma: human V, CH1 and upper hinge, mouse middle hinge, CH2 and CH3, human kappa light chain; also called clone 151; mAb 151
B7: anti-CD47 AlivaMab antibody 102 (antibody, IgG1, V domains shown)
VH: B1 VH with S31N, V51I, G56S, G100D, Y104I, L110M
VL: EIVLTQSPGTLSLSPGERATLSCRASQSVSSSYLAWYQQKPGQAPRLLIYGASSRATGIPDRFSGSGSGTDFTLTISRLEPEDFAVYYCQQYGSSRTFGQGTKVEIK
notes: as for B4
B8: anti-CD47 AlivaMab antibody 87 (antibody, IgG1, V domains shown)
VH: B1 VH with V51I, G56S, S83N, G100A, T101F, F102L
VL: B1 VL with V11L, S31N, W32Y, Y36F, L46S, S56G, R61K, F87Y, A91Y, F94Y
notes: Chimeric AlivaMab Mouse mAb from hybridoma: human V, CH1 and upper hinge, mouse middle hinge, CH2 and CH3, human kappa light chain; also called clone 87; mAb 87
B9: anti-CD47 AlivaMab antibody 144 (antibody, IgG1, V domains shown)
VH: B1 VH with V51I, G56T, T101E
VL: B1 VL with V15E, S31R, F87Y
notes: Chimeric AlivaMab Mouse mAb from hybridoma: human V, CH1 and upper hinge, mouse middle hinge, CH2 and CH3, human kappa light chain; also called clone 144; mAb 144
B10: anti-CD47 AlivaMab antibody 90 (antibody, IgG1, V domains shown)
VH: QVQLQESGPGLVKPSETLSLTCTVSGGSINNYYWSWIRQPPGKGLEWIGYIYYSGSTNYHPSLKSRVTISVDTSKNQFSLKLTSVTAADTAVFYCARGRRALTAWGQGTLVTVSS
VL: B4 VL with L4V, D28G, G30S, C36Y, G56S, V104M
notes: Chimeric AlivaMab Mouse mAb from hybridoma: human V, CH1 and upper hinge, mouse middle hinge, CH2 and CH3, human kappa light chain; also called clone 90; mAb 90
B11: anti-CD47 AlivaMab antibody 101 (antibody, IgG1, V domains shown)
VH: B10 VH with N30S, N31F, S35T, Y50F, H60N, T83S, F93Y, R100G
VL: not shown
notes: as for B4
B12: anti-CD47 AlivaMab antibody 10 (antibody, IgG2a, V domains shown)
VH: B1 VH with S30R, S31T, V51I, G56S, R99K, T101A, Y104I, L110M
VL: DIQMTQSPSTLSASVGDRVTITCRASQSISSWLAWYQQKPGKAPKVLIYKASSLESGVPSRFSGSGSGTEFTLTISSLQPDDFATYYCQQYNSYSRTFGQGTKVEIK
notes: Chimeric AlivaMab Mouse mAb from hybridoma: human V, CH1 and upper hinge, mouse middle hinge, CH2 and CH3, human kappa light chain; also called clone 10; mAb 10
B13: anti-CD47 AlivaMab antibody 153 (antibody, IgG1, V domains shown)
VH: B1 VH with S30N, S31Y, V51I, G56S, G100S, T101S, F102Y
VL: B2 VL with T13A, F32Y, K45R, Y96W, L104V
notes: Chimeric AlivaMab Mouse mAb from hybridoma: human V, CH1 and upper hinge, mouse middle hinge, CH2 and CH3, human kappa light chain; also called clone 153; mAb 153
B14: anti-CD47 AlivaMab antibody 5 (antibody, IgG1, V domains shown)
VH: B1 VH with V51I, G56S, K98G, R99K, T101G, F102T
VL: B1 VL with F87Y, L96R, G100Q
notes: Chimeric AlivaMab Mouse mAb from hybridoma: human V, CH1 and upper hinge, mouse middle hinge, CH2 and CH3, human kappa light chain; also called clone 5; mAb 5
B15: anti-CD47 AlivaMab antibody 143 (antibody, IgG1, V domains shown)
VH: QVQLQESGPGLVKPSETLSLTCTVSGGSINNYYWSWIRQPPGKGLEWIGYIYYSGSTNYNPSLRSRVTISVDTSKNQFSLKLSSVAAADTAVYYCARQKGMDVWGQGTTVTVSS
VL: B2 VL with T13A, F32Y, Y96P, L104V
notes: Chimeric AlivaMab Mouse mAb from hybridoma: human V, CH1 and upper hinge, mouse middle hinge, CH2 and CH3, human kappa light chain; also called clone 143; mAb 143
B16: anti-CD47 AlivaMab antibody 14 (antibody, IgG1, V domains shown)
VH: B2 VH with S98K, Y100G, F101L, L103I, R106Q, L109M
VL: not shown
notes: Chimeric AlivaMab Mouse mAb from hybridoma: human V, CH1 and upper hinge, mouse middle hinge, CH2 and CH3, human kappa light chain; also called clone 14; mAb 14
B17: anti-CD47 AlivaMab antibody 106 (antibody, IgG1, V domains shown)
VH: QVQLQGSGPGLVKPSETLSLTCTVSGGSINNYYWSWIRQPPGKGLEWIGYIYYSGSTNSNPSLKSRVTISVDTSKNQFSLKLNSVTAADTAVYYCARKRDAFDIWGQGTMVTVSS
VL: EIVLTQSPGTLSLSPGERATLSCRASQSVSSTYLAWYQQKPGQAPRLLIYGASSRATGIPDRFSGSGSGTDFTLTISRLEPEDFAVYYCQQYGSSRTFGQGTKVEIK
notes: as for B4

biological target: T1, human CD47 extracellular domain with a histidine- (HIS-) tag (Sino Biological, China) (human, UniProt Q08722 19-139); experiment: competition ELISA on huCD47 after 1A
T1 construct: extracellular domain; also called huCD47; huCD47 protein (Sino Biological, China 10161-H08H); not shown: histidine tag

Going from B1 to B2, the “competition matrix cell (no name or unit printed)” value rises from 103 to 106.

B3 was tested, and the “competition matrix cell (no name or unit printed)” value was 98.

biological target: T2, recombinant human CD47 (Novoprotein cat no. C321, lot no. 0329689) (human, UniProt Q08722 19-139); experiment: SPR summary table, 25 C
T2 construct: Bought reagent
Experimental: (§1) Binding kinetics were measured at 25° C. using a BioRad ProteOn XPR36 optical biosensor equipped with GLM sensor chips and equilibrated with running buffer (HBS, 0.005% TWEEN-20, 0.1 mg/mL BSA, pH 7.4).
(§2) CD47 was tested in a three-fold dilution series starting at 100 nM.

B4 and B5 are within 1.5-fold of each other in Kd: 0.16 nM for the first, 0.15 nM for the second.

First: B6
Second: B7
The Kd of the first is 3.1-fold higher: 1 nM for the first, 0.32 nM for the second. The second binds more tightly here.

B4 and B5 are within 1.5-fold of each other in koff: 0.00093 s⁻¹ for the first, 0.00111 s⁻¹ for the second.

Compared with B6, B7 is 4-fold lower in koff: 0.0089 s⁻¹ for the first, 0.00221 s⁻¹ for the second.

B4 and B5 are within 1.5-fold of each other in kon: 5.7e+06 M⁻¹ s⁻¹ for the first, 7.2e+06 M⁻¹ s⁻¹ for the second.

B6 and B7 are within 1.5-fold of each other in kon: 8.7e+06 M⁻¹ s⁻¹ for the first, 6.9e+06 M⁻¹ s⁻¹ for the second.

biological target: T2, recombinant human CD47 (Novoprotein cat …); experiment: SPR, antibodies binned by kd at 25 C (value is the column's head)
Experimental: as §1, §2

For B6, the koff was about 0.01 s⁻¹.

biological target: T3, recombinant CD47-Fc (Sino Biologics) (human, UniProt Q08722 19-139); experiment: competition ELISA: HIS-tagged SIRP α binding to plate-bound CD47-Fc, antibody titrated
T3 construct: Bought reagent; also called human CD47-Fc; not shown: Fc

B4 and B8 are within 1.5-fold of each other in IC50: 2.7 nM for the first, 3 nM for the second.

Compared with B9, B1 is 2.1-fold lower in IC50: 10 nM for the first, 4.8 nM for the second.

Compared with B10, B11 is 3.6-fold lower in IC50: 53.6 nM for the first, 15 nM for the second.

First: B12
Second: B5
The IC50 of the first is 2.2-fold higher: 4.7 nM for the first, 2.1 nM for the second. The second is the more potent here.

First: B6
Second: B13
The IC50 of the first is 14-fold lower: 2 nM for the first, 27.9 nM for the second. The first is the more potent here.

First: B14
Second: B7
The IC50 of the first is 1.5-fold higher: 3.5 nM for the first, 2.3 nM for the second. The second is the more potent here.

Going from B2 to B3, the IC50 rises from 3 nM to 4.9 nM (1.6-fold). The first is the more potent here.

Compared with B15, B16 is 27-fold lower in IC50: 96 nM for the first, 3.5 nM for the second.

In the case of B17, the IC50 is reported as 2.9 nM.

biological target: T1, human CD47 extracellular domain with a …; experiment: competition ELISA on huCD47 after 10A
Experimental: (§3) A competition ELISA was performed to establish competitive binding bins. […] After washing, wells were incubated with an AlivaMab monoclonal antibody representing one of seven unique competition bins. After 1 hour the wells were washed and incubated with individual clonal anti-huCD47 AlivaMab hybridoma supernatants. […] Individual AlivaMab Mouse antibodies that were unable to bind in the presence of a mouse antibody are considered to be in the same epitope bin as that particular mouse antibody.

Compared with B4, B1 is lower in “competition matrix cell (no name or unit printed)” value: 100 for the first, 97 for the second.

Compared with B11, B14 is higher in “competition matrix cell (no name or unit printed)” value: 92 for the first, 93 for the second.

biological target: T2, recombinant human CD47 (Novoprotein cat …); experiment: SPR (ProteOn XPR36), mAb captured on anti-mouse Fc, CD47 as analyte, 25 C, 1:1 model
Experimental: as §1, §2

B4 and B5 are within 1.5-fold of each other in Kd: 0.163 nM for the first, 0.154 nM for the second.

Going from B6 to B7, the Kd falls from 1 nM to 0.32 nM (3.1-fold).

B4 and B5 are within 1.5-fold of each other in koff: 0.00093 s⁻¹ for the first, 0.00111 s⁻¹ for the second.

Going from B6 to B7, the koff falls from 0.0089 s⁻¹ to 0.00221 s⁻¹ (4-fold).

B4 and B5 are within 1.5-fold of each other in kon: 5.7e+06 M⁻¹ s⁻¹ for the first, 7.2e+06 M⁻¹ s⁻¹ for the second.

B6 and B7 are within 1.5-fold of each other in kon: 8.7e+06 M⁻¹ s⁻¹ for the first, 6.9e+06 M⁻¹ s⁻¹ for the second.

biological target: T1, human CD47 extracellular domain with a …; experiment: competition ELISA on huCD47 after 27A
Experimental: as §3

First: B4
Second: B1
The “competition matrix cell (no name or unit printed)” value of the first is lower: 106 for the first, 108 for the second.

Compared with B2, B3 is lower in “competition matrix cell (no name or unit printed)” value: 105 for the first, 98 for the second.

biological target: T1, human CD47 extracellular domain with a …; experiment: competition ELISA on huCD47 after 156A
Experimental: as §3

Going from B1 to B2, the “competition matrix cell (no name or unit printed)” value falls from 120 to 112.

For B3, the “competition matrix cell (no name or unit printed)” value was 95.

biological target: T1, human CD47 extracellular domain with a …; experiment: competition ELISA on huCD47, row G1 Alone
Experimental: as §3

B4 and B1 are the same in “competition matrix cell (no name or unit printed)” value: 100 for the first, 100 for the second.

B11 and B2 are the same in “competition matrix cell (no name or unit printed)” value: 100 for the first, 100 for the second.

B3 was tested, and the “competition matrix cell (no name or unit printed)” value was 100.

biological target: T1, human CD47 extracellular domain with a …; experiment: competition ELISA on huCD47 after 35A
Experimental: as §3

First: B1
Second: B14
The “competition matrix cell (no name or unit printed)” value of the first is higher: 117 for the first, 97 for the second.

Compared with B2, B3 is lower in “competition matrix cell (no name or unit printed)” value: 109 for the first, 104 for the second.

biological target: T1, human CD47 extracellular domain with a …; experiment: competition ELISA on huCD47 after 10A; cross-hatched cell
Experimental: as §3

First: B4
Second: B11
The “competition matrix cell (no name or unit printed)” value of the first is higher: 85 for the first, 61 for the second.

First: B14
Second: B2
The “competition matrix cell (no name or unit printed)” value of the first is lower: 73 for the first, 89 for the second.

With B3 the “competition matrix cell (no name or unit printed)” value was 83.

biological target: T1, human CD47 extracellular domain with a …; experiment: competition ELISA on huCD47 after 141A
Experimental: as §3

First: B1
Second: B2
The “competition matrix cell (no name or unit printed)” value of the first is lower: 100 for the first, 107 for the second.

With B3 the “competition matrix cell (no name or unit printed)” value was 102.
